Among the data in the supplement of paper PMC10567573 are protein stability index values, retold here.

The nature of this data set: protein stability index of a GFP-peptide fusion (GPS, HEK-293T) (PSI 1-6); higher = more stable. The following applies: c terminus: a fixed tail appended.

± gives the standard deviation.
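Further: 24-mer peptide tiles fused after GFP, lentivirally expressed, FACS-sorted into six equal bins by GFP/DsRed ratio, decoded by Illumina sequencing, PSI is the read-weighted mean bin number.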

With CRERWHNHLNPEVKKSCWTEEEDR [MYBL2], the protein stability index is, setting by setting: (treatment: DMSO) 4.2 ± 0.4; (treatment: MLN4924 1 uM, 8 h) 4.34 ± 0.25.
Take CRLRCHPPRGPLAKHRLVPPAQGR [TRIM9]: the protein stability index reads like this: (treatment: DMSO) 2.84 ± 0.14; (treatment: MLN4924 1 uM, 8 h) 3.47 ± 0.56.
Taken in the same sequence, the figures for CSRTWTNRLCHQEMGSKKTVTQED [SPAG8] were 3.7 ± 0.13 and 3.74 ± 0.14.
For CSSSGKDGNLCLHVPNPPSGISFP [HESX1], in that order: 3.15 ± 0.18 and 3.25 ± 0.33.
For CSWKGATKQRIQDQKVPYIFRDNQ [CHIT1], in that order: 2.87 ± 0.24 and 3.14 ± 0.62.
The sequence CTHCSKSFRQRAGLIMHQVTHFRG [ZNF449] gave a protein stability index (treatment: DMSO) of 2.46 ± 0.53 and a protein stability index (treatment: MLN4924 1 uM, 8 h) of 3.02 ± 0.52.
Taken in the same sequence, the figures for DADILGLKKSNSAPSKKAAKDPGK [FBF1] were 5.18 ± 0.18 and 5.22 ± 0.42.
Taken in the same sequence, the figures for DARYKLHHHLHKTLREITDQEHNV [TEKT4] were 3.77 ± 0.29 and 4.02 ± 0.14.
Sequence DAVQTSLMDEGASSEKKRQSSADG [RBBP5] registered a protein stability index (treatment: DMSO) of 5.49 ± 0.26 and a protein stability index (treatment: MLN4924 1 uM, 8 h) of 5.48 ± 0.19.
For DDDFSIHAAHVVCRELGYVEAKSW [LOXL2], in that order: 2.72 ± 0.24 and 2.83 ± 0.33.
For DEELHLLIISCRKLFYFKIWAFLD [FBXO39], in that order: 2.75 ± 0.52 and 2.47 ± 0.69.
For DENSSDGRYVKENCKPLKSYMLQD [CLK3], in that order: 4.57 ± 0.49 and 4.36 ± 0.11.
DETFLATSFLQHPWDESGSGCLPP [FOXJ1]: the protein stability index reads like this: (treatment: DMSO) 4.15 ± 0.16; (treatment: MLN4924 1 uM, 8 h) 4.11 ± 0.079.
Taken in the same sequence, the figures for DFCEPSFVTGNCLEISPDCSQYDR [PCMTD2] were 4.38 ± 0.32 and 4.4 ± 0.22.
Taken in the same sequence, the figures for DGSYALNGEYTLMPSPTDVVLPGA [ADAMTS4] were 4.4 ± 0.2 and 3.87 ± 0.36.
For DHEDFTGSSSLGFTSSPSPFSSSS [FCHO1], in that order: 4.45 ± 0.15 and 4.37 ± 0.14.
DHRGRMVKHQCCPGCGYFCTAGNF [EHMT1]: the protein stability index by setting is: (treatment: DMSO) 2.79 ± 0.14; (treatment: MLN4924 1 uM, 8 h) 3.14 ± 0.17.
Taken in the same sequence, the figures for DIASRYPTLWTEQVKSRQNKTNKN [SMOC2] were 3.98 ± 0.18 and 4.36 ± 0.33.
With DIEQFFNIGDSSSGLIQTVFISSY [SPNS1], the protein stability index (treatment: DMSO) came out at 2.68 ± 0.39 and the protein stability index (treatment: MLN4924 1 uM, 8 h) turned out to be 2.66 ± 0.8.
For DIFALALTVVCAAGAEPLPRNGDQ [WEE1], in that order: 2.77 ± 0.22 and 2.54 ± 0.61.
Taken in the same sequence, the figures for DILMEEEEGVVGGLSGGALSPLRA [TFE3] were 4.45 ± 0.42 and 4.11 ± 0.23.
For the sequence DIVFSKIKGKSCRTITFEQFQEAL [TPPP], the protein stability index is, setting by setting: (treatment: DMSO) 2.46 ± 0.29; (treatment: MLN4924 1 uM, 8 h) 2.31 ± 0.13.
Taken in the same sequence, the figures for DLFDLCDRTFTLKTVLMIAIQLLS [CSNK1G1] were 2.6 ± 0.43 and 2.33 ± 0.42.
Taken in the same sequence, the figures for DLKLGNFFINEAMELKVGDFGLAA [PLK2] were 2.14 ± 0.078 and 2.63 ± 0.17.
In the case of DLLPVWLLEDMRASEAFHWDERGR [ANKRD9], the protein stability index runs as follows: (treatment: DMSO) 2.52 ± 0.5; (treatment: MLN4924 1 uM, 8 h) 2.87 ± 0.45.
For DLQITDQVALLRLTWSELFVLNAA [NR2F2], in that order: 2.92 ± 0.58 and 2.88 ± 0.65.
Taken in the same sequence, the figures for DLSGRRLRDVNHEKAMAEWVKQQA [SDE2] were 4.24 ± 0.2 and 4.13 ± 0.37.
Consider DNPFGIYQKILAGKIDFPRHLDFH [PRKX], for which the protein stability index stood at 2.1 ± 0.33 (treatment: DMSO) and 2.23 ± 0.28 (treatment: MLN4924 1 uM, 8 h).
In the case of DPEVFKEMMRFIYTGRAPNLDKMA [SPOPL], the protein stability index amounted to 2.25 ± 0.32 (treatment: DMSO) and 2.41 ± 0.26 (treatment: MLN4924 1 uM, 8 h).
